Type in all cases: biochemical
A short description of data set [1]: Effects of heavy metal on scyllo-inositol dehydrogenase. The conditions noted are these: 2 mM heavy metal in reaction solution; no addition group = 100%. The protocol: Effects by the heavy metals can be confirmed by: mixing 5 μl of a reaction solution (200 mM Tris buffer of pH 8.0 containing 2% of NADPH, 1% of scyllo-inosose, and 2 mM metal salt) and 5 μl of an enzyme solution; allowing the mixture to react at 36° C. for 30 minutes; adding 500 μl of water immediately after the completion of the reaction; determining the absorbance at 340 nm; and determining a decrease in the absorbance at 340 nm with respect to a blank value of a test solution containing water instead of the enzyme solution. The term “activated” means the case where the enzymatic activity of a fraction added with 1 mM of a heavy metal is 105% or more, preferably 120% or more, with respect to the enzymatic activity of a fraction added with no heavy metal as 100%. On the other hand, the term “inhibited” means the case where the enzymatic activity of the fraction added with 1 mM of a heavy metal is 95% or less, preferably 70% or less, with respect to the enzymatic activity of the fraction added with no heavy metal as 100%.
The effects of heavy metal on the enzymes of the present invention were determined by: mixing 5 μl of a reaction solution (200 mM Tris buffer (pH 8.0), 2% of NADPH, 1% of scyllo-inosose, and 2 mM of a heavy metal) with 5 μl of an enzyme solution; and allowing the mixture to react at 36° C. for 30 min. After the reaction, 500 μl of water was immediately added thereto, and the absorbance at 340 nm was measured. From the blank value of a test solution prepared by using water instead of the enzyme solution, the decrease in the absorbance at 340 nm was measured. The enzyme solution was diluted as required. CaCl2, CoCl2, ZnSO4, MgSO4, SnCl2, NiCl2, and MnSO4 were used as metallic salts. The activity of the no addition group was defined as 100%, and the relative activities were compared. […] Most of the enzymes were inhibited in the presence of Zn^2+ ion, in contrast, the enzyme derived from Bacillus subtilis 168 was activated in the presence of Zn^2+ ion.

Data set [2] in a line: Substrate specificity of scyllo-inositol dehydrogenase (relative activity of oxidation, absorbance at 545 nm). To be noted: relative to reactivity to scyllo-inositol, NADP^+, pH 8.0, 25° C. On the procedure:
Examples of an inositol isomer include scyllo-inositol (SI), myo-inositol (MI), D-chiro-inositol (DCI), L-chiro-inositol (LCI), epi-inositol (EI), muco-inositol (MuI), allo-inositol (AI), and neo-inositol (NI).
The inositol isomers include scyllo-inositol (SI), myo-inositol (MI), D-chiro-inositol (DCI), L-chiro-inositol (LCI), epi-inositol (EI), muco-inositol (MuI), allo-inositol (AI), and neo-inositol (NI).
The reaction rate was calculated from the absorbance increments at the respective times.

A short description of data set [3]: Enzyme reaction product of scyllo-inosose reduction measured by HPLC. The conditions noted are these: for Reduction reaction product: SIS: scyllo-inosose, SI: scyllo-inositol. On the procedure: Meanwhile, the enzyme reaction product was measured as follows: 10 mg of scyllo-inosose, 40 mg of NADPH, and 10 U of the enzyme were allowed to react in 1.0 ml of 100 mM Tris buffer (pH 8.0) at 36° C. for 4 hours, and a heat treatment was performed at 80° C. for 10 min, followed by cooling. Then, 100 μl of a strong base cation exchange resin, 100 μl of a strong acid anion exchange resin, and 10 mg of activated carbon were added, and the mixture was stirred and centrifuged. Then, the supernatant was diluted 2-fold, and measurement was performed by HPLC (Shodex Asahipak NH2P-50 4E Φ 4.6×250 mm: Shodex) using an RI detector under the condition of a column temperature of 40° C. and a mobile phase flow rate of 1.5 ml (80% acetonitrile). […] Meanwhile, the sequence of the ydgJ gene is shown in SEQ ID NO: 1, and the amino acid sequence corresponding thereto is shown in SEQ ID NO: 2.
Meanwhile, enzyme reaction product was measured as follows: 10 mg of scyllo-inosose, 40 mg of NADPH, and 10 U of the enzyme were allowed to react in 1.0 ml of 100 mM Tris buffer (pH 8.0) at 36° C. for 4 hours, and a heat treatment was performed at 80° C. for 10 min, followed by cooling. Then, 100 μl of a strong base cation exchange resin, 100 μl of a strong acid anion exchange resin, and 10 mg of activated carbon were added, and the mixture was stirred and centrifuged. Then, the supernatant was diluted 2-fold, and measurement was performed by HPLC (Shodex Asahipak NH2P-50 4E Φ 4.6×250 mm: Shodex) using an RI detector under conditions of a column temperature of 40° C. and a mobile phase flow rate of 1.5 ml (80% acetonitrile).

Data set [4] can be described thus: Optimum pH of scyllo-inositol dehydrogenase. The conditions noted are these: 200 mM phosphate buffer (pH 5.0 to 9.0); 90% or more of the maximum activity. On the procedure:
The optimum pH can be confirmed by: mixing 5 μl of a reaction solution (200 mM […] of pH 5.0 to 9.0 containing 2% of NADPH, and 1% of scyllo-inosose) and 5 μl of an enzyme solution; allowing the mixture to react at 36° C. for 30 minutes; adding 500 μl of water immediately after the completion of the reaction; determining the absorbance at 340 nm; and determining a decrease in the absorbance at 340 nm with respect to a blank value of a test solution containing water instead of the enzyme solution. The term “optimum pH” means a pH at which the enzyme has 90% or more of the maximum activity. The enzyme of the present invention can be divided depending on, for example, a range of the optimum pH into groups each having: an optimum pH in an acidic region (optimum pH is pH of 5.5 to 6.5); an optimum pH in a neutral region (optimum pH is pH of 6.5 to 7.5 or 6.5 to 8.5); and an optimum pH in an alkaline region (optimum pH is pH of 7.0 to 8.5 or 7.5 to 9.0).
The optimum pH of the enzymes of the present invention was determined by: mixing 5 μl of a reaction solution (200 mM phosphate buffer (pH 5.0 to 9.0), 2% of NADPH, and 1% of scyllo-inosose) with 5 μl of an enzyme solution; and allowing the mixture to react at 36° C. for 30 min. After the reaction, 500 μl of water was immediately added thereto, and the absorbance at 340 nm was measured. From the blank value of a test solution prepared by using water instead of the enzyme solution, the decrease in the absorbance at 340 nm was measured. The enzyme solution was diluted as required.

The nature of data set [5]: Km values of scyllo-inositol dehydrogenase for scyllo-inosose (reciprocal plot). To be noted: NADPH, pH 8.0, 36° C. On the procedure: The determination is carried out such that the Km value is calculated after reciprocal plot according to the general method.
After the reaction, […] of water was immediately added thereto, and the absorbance at 340 nm was measured. From the blank value of a test solution prepared by using water instead of the enzyme solution, the decrease in the absorbance at 340 nm was measured. The enzyme solution was diluted as required. The Km values were calculated by the reciprocal plot.

Entries after “also recorded” stand apart in the source; their conditions may differ.

A word on the Km: it is the concentration of substrate that gives half-maximal velocity.

B1: AB10121 Atu3234 gene: recombinant scyllo-inositol dehydrogenase, Atu3234 gene product of Agrobacterium sp. AB10121 FERM P-17383, SEQ ID NO: 12 (protein, listed as Agrobacterium sp.)
chain: MAIEGKTTDKANKRIRLGMVGGGSGAFIGGVHRMAARLDNRFDLVAGALSSTPEKSLASGRELGLDPERCYGSFEEMAEKEALREDGIEAVAIVTPNHVHYPAAKAFLERGIHVICDKPLTSNLEDAKKLKDVADKADALFILTHNYTGYPMVRHARELVESGALGTIRLVQMEYPQDWLAEPIEQTGAKQAVWRTDPAQSGAGGSTGDIGTHAYNLGCFISGLEVDELAADVHTFVEGRRLDDNAHVMLRFKPKGGKQPAKGLLWCSQVAVGHENGLKVRVYGDKAGIEWTQADPNYLWFTKLGELKQLITRGGAGAGAAAARVTRIPSGHPEGYLEAFATIYTEAAHAIEARRTGSVLDKAVIYPTVDDGVKGVAFVTACIESGKKNGVWVKL
On to B1, for which, in data set [1], the “Heavy metal effects: activation” value is “Co, Mn, Ca” and the “Heavy metal effects: strong inhibition” value is listed as “Sn, Zn”. Moreover, in data set [2], the “Substrate specific Relative activity (20 to 70%)” value is “MuI”; the “Substrate specific Relative activity (70% or more)” value was “SI, MI, DCI, EI, and LCI”; the “Substrate specific Relative activity (less than 20%)” value is “AI, NI”. For the same molecule, in data set [3] (10 mg scyllo-inosose, 40 mg NADPH, 10 U enzyme, 36° C., 4 hours, myo-inositol not detected), the “share of scyllo-inositol in the product of scyllo-inosose reduction” value was determined as 100%. Also, in data set [3], the Reduction reaction product result is reported as “Only SIS → SI”. In addition, the “Optimum pH” value in data set [4] is reported as “pH 7.0-8.5”. In data set [5], the Km amounted to 3.1 mM.

B2: SIDH1: scyllo-inositol dehydrogenase purified from Acetobacter sp. AB10281, DEAE-unadsorbed fraction, SEQ ID NO: 28 (protein, listed as Acetobacter sp.)
chain: MTKRKLRIGLIGSGFMGRTHAFGYSTASRVFDLPFQPELTCLADISDEAAAKAADALGFARSTSDWRTLVNDPEIDVVNITAPNAFHKEMALAAIAAGKHVYCEKPLAPLAADAREMAEAAEAKGVKTQVGFNYLCNPMLALARDMIAAGELGEIRGYRGLHAEDYMADASSPFTFRLDPAGGGALADIGSHALATAEFLMGPAAGAITQVMGDCVTVIKTRPDGKGGTRAVEVDDIGRALLRFENGATGSVEGNWIATGRTMQHDFEVYGTKGALAFTQQRFNELHFFSSTDARGRKGFRRIEAGPEHAPYGLFCVAPGHQLGFNDLKAIEVARYLEALAGHHPEPFNFRAGLRIQTLVETIHASSKSAAWRDVPTDKVKLQAKSRQHEKA
Turning to B2, in data set [1], the “Heavy metal effects: activation” value is “Co” and the “Heavy metal effects: strong inhibition” value is “Sn, Zn”. Besides, in data set [2], the “Substrate specific Relative activity (less than 20%)” value is on record as “DCI, LCI, EI,; also recorded: MuI, AI, NI”. The Reduction reaction product result in data set [3] is on record as “Only SIS → SI”. In addition, the “Optimum pH” value in data set [4] is listed as “pH 5.5-6.5”. Further, the Km in data set [5] came out at 7.6 mM.

Values taken from patent publication US8409833B2 (Hokko Chemical Industry Co., Ltd., priority 2003, dated 2013).
